Laboratory results from patent publication US20240029824A1 (University of Washington, published 2024).
Values belong to the binder of their own block, whether it stands above or below them.

Columns and labels:
DHT04 chain C = molecular target: T1, DHT04 chain C; assay: co-expression, IMAC, SEC, native MS; chains of one ABC heterotrimer
T1 chain: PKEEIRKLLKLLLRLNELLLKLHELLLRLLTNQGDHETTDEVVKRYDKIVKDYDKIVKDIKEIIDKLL
Excerpt: (§1) Genes encoding 85 heterotrimers in a tricistronic expression vector were obtained, and the proteins were expressed in E. coli and purified via IMAC with only one chain having the 6×His-tag. Nine of the designs (FIG. 3a) had monodisperse SEC peaks (FIG. 3b), were almost exclusively ABC by nMS, and had good SAXS fits to the design models (Table 7). […] Eight of the designs are parallel heterotrimers, while DHTO9 is an antiparallel heterotrimer. […] For 3 other designs, only the ABC heterotrimer was determined to form by nMS (when the respective SEC fraction was analyzed) but the heterotrimer SEC peak was preceded by soluble aggregate that would make building with these constructs difficult downstream. We explored the dependence of cooperativity on connectivity between the three chains by changing the positions of the loops across different helices in DHT03, while keeping the rest of the interface intact. […] The ability to sustain alternate loop closures increases the number of heteromeric building blocks available for future nanostructure assembly applications and may enable rigid fusion of functional domains to the different termini available.
(§2) Samples were analyzed by online buffer exchange native mass spectrometry (nMS) to evaluate sample purity and accurately determine oligomeric states⁴². Multiple instruments were used as the analyses were carried out over the duration of the protein design process. The mass spectrometers used for detection were a Q Exactive™ UHMR modified with a surface-induced dissociation device and an Exactive™ Plus EMR modified with a selection quadrupole and a surface-induced dissociation device (Thermo Fisher Scientific)⁴³. The liquid chromatography systems used for the buffer exchange include a Vanquish™ Duo UHPLC and a Dionex™ Ultimate 3000 HPLC (Thermo Fisher Scientific). A heated electrospray ionization source (HESI-II, Thermo Fisher Scientific) with a spray voltage of ˜4 kV was used for ionization.

DHT06 chain C = molecular target: T2, DHT06 chain C; assay: as above
T2 chain: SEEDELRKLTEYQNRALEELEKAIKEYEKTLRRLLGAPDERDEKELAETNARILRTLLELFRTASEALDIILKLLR
Excerpt: as §1, §2

DHT10 chain C = molecular target: T3, DHT10 chain C; assay: as above
T3 chain: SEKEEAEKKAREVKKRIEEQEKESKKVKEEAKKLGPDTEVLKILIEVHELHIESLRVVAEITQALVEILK
Excerpt: as §1, §2

DHT01 chain C = molecular target: T4, DHT01 chain C; assay: co-expression, IMAC and Strep-Tactin pull-down, SEC, native MS; chains of one ABC heterotrimer
T4 chain: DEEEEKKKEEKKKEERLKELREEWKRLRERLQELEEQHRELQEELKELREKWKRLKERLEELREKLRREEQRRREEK
Excerpt: We obtained genes encoding 20 coiled coil designed heterotrimers (DHTs) in a tricistronic E. coli expression vector with one chain having a 6×His-tag and a second chain having Strep-tag II, expressed the proteins, and purified by immobilized metal affinity chromatography (IMAC) and Strep-Tactin pull-down. All designs were soluble and for 6 designs, all three components were observed by liquid chromatography-mass spectrometry (LC-MS) after both pull-down approaches. Of these, 5 eluted as monodisperse peaks by SEC, but only 1 design (DHT01) was an exclusive ABC heterotrimer by native mass spectrometry (nMS) and had good agreement with the design model via small angle X-ray scattering (SAXS) (FIG. 2d, Table 7).
as §2, with “ionization. Protein samples stored in Tris buffer were injected (0.1-2 ug) onto the LC system and exchanged at a flow rate of 100-200 uL*min⁻¹ into 200 mM ammonium acetate (mobile phase) prior to ionization. Buffer exchange columns used include self-packed columns with P6 polyacrylamide gel (Bio-Rad Laboratories) and prototype buffer exchange columns provided by Thermo Fisher Scientific (Sunnyvale, CA). Instrument parameters were optimized to allow for ion transmission while minimizing unintentional ion activation. […]” for “ionization.”

DHT02 chain C = molecular target: T5, DHT02 chain C; assay: co-expression, IMAC, SEC, native MS; chains of one ABC heterotrimer
T5 chain: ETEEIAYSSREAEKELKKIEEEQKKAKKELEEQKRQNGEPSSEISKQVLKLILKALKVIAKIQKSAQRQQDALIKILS
Excerpt: as §1, §2

DHT09 chain C = molecular target: T6, DHT09 chain C; assay: as above
T6 chain: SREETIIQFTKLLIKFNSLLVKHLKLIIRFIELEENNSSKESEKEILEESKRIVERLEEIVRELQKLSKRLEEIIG
Excerpt: as §1, §2

[1] = molecular target: T7, DHT03 chain C (SEQ ID NO: 65); assay: co-expression, SEC, native MS, SAXS; chains of one ABC heterotrimer
T7 chain: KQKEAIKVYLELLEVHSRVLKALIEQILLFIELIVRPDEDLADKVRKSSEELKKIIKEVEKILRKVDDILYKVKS

DHT08 chain C = molecular target: T8, DHT08 chain C; assay: co-expression, IMAC, SEC, native MS; chains of one ABC heterotrimer
T8 chain: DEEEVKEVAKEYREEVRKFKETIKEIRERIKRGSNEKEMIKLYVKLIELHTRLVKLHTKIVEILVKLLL
Excerpt: as §1, §2

[2] = molecular target: T9, DHT03_variant_ABC-2 chain C; assay: native MS; loop-connectivity variant of DHT03, chains of one ABC heterotrimer
T9 chain: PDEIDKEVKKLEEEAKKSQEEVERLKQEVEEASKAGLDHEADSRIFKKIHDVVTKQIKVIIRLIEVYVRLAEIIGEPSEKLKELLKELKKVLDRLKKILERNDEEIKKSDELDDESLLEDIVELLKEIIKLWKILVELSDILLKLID

DHT07 chain C = molecular target: T10, DHT07 chain C; assay: co-expression, IMAC, SEC, native MS; chains of one ABC heterotrimer
T10 chain: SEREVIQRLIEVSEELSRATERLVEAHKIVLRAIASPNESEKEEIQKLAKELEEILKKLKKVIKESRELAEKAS
Excerpt: as §1, §2

binding result (DHT04 chain C): binds
B1: DHT04 chain B (designed binder)
chain: DEELIIYIIELLLKDDELLLKSLEIILRIIQLQLTSKDKDDGTDKIKKLVDESKKILDDSERLAEELRKIEEKLK

binding result (DHT06 chain C): binds
B2: DHT06 chain B (designed binder)
chain: SEEDELEKAIREQKKALERLKEAIERYEETLKRGKNEKELAKTNAEILKTLLELFKSQLELAEIILKLLR

binding result (DHT10 chain C): binds
B3: DHT10 chain B (designed binder)
chain: SELEEEIKRIRKEIEESRRRIEELRKKAQKAREGSSEKEFLQIYIELQKVLIEQIKIYIELLQIIFELQS

binding result (DHT01 chain C): binds
B4: DHT01 chain B (designed binder)
chain: SEQERREKAKEEVRELNEEFKEAEKRFRKLQEETKKALEEVEELNQRFEEALEEVERIKRRQK

binding result (DHT02 chain C): binds
B5: DHT02 chain B (designed binder)
chain: PQLDKFRDESRYLDKASKEVEDEIKKIEKIIRDADEKSLPEEALQDVVKSVVKVYLKSVKETIKSIELVIELIKVIM

binding result (DHT09 chain C): binds
B6: DHT09 chain B (designed binder)
chain: SKEEILKLHLEVAEIHIETVKIYLEVIKILIRLIEKNSSKEDERELEEELKELERELEELQKKLEEIRKELQEIEG

binding result [1]: binds
B7: DHT03_2arm_A21/Bt18/C chain B (designed binder)
chain: TEEKIAKEISRIAEESKKRIEELARKADNKTTETEVDKAIEKIAKLAREAIKRIEDLAKNLASEEFMARAISAIAELAKKAIEAIYRLADNHTTDTFMAKAIEAIAELAKEAIKAIADLAKNHTTEEFMARAISAIAELAKKAIEAIYRLADNHTTDTFMAKAIEAIAELAKEAIKAIADLAKNHTTEEFMAKAISAIMELAVKAILAIARLASNHTSQTYREKAREAVEKIARTAEKAIEDLAKNITTEEYKERAKKARAIVRVMAEVAKLLIEAVESQEEVERLKQEVEKASKAGLDHEGDSRIFKKIHDVVTKQIKVIIRLIAVYAELVAIIG

binding result (DHT08 chain C): binds
B8: DHT08 chain B (designed binder)
chain: DKEEKIKEILRRVQELRREHEELEERLKELKKELEKSPSQEELKKFIKLAQELIKLTLELIELSLRLIELLLG

binding result [2]: binds
B9: DHT03_variant_ABC-2 chain B (designed binder)
chain: QKEAIKVYLELLEVHSRVLKALIEQIKLFIELIKRK

binding result (DHT07 chain C): binds
B10: DHT07 chain B (designed binder)
chain: DREEKLERETEKLEKKIRESQRRMEELRKQIETDPDEKELLEILIRSLRLLEEQLEALRKLNHAAQQLLG
